How the values were obtained:
[1] = test system: CPM-induced neutropenic male BDF1 mice; assay: mono-therapy and combination therapy on neutrophil recovery in CPM-induced neutropenic mice (Example 4); format: in vivo, mouse; conditions: monotherapy; CPM 150 mg/kg Day 0; VTP 194310 1 or 3 mg/kg/day oral Days −1 to 1; PEG-G-CSF 1 or 10 μg/kg s.c. Day 2
Experimental: VTP 194310 DMSO stock solution was made by weighing out VTP 194310 and dissolved in DMSO (25 mg/1.33 ml DMSO). This stock solution was then mixed with Vehicle (39.2 ml Corn Oil+0.8 ml DMSO).
The 3.0 mg/kg VTP194310 solution was made by mixing 39.2 ml Corn Oil+0.8 ml VTP 194310 DMSO Stock.
The 1.0 mg/kg VTP194310 solution was made by diluting the VTP194310 DMSO Stock 1:3 with DMSO (e.g. 1 ml DMSO+0.5 ml 4310 Stock), and then combining 39.2 ml Corn Oil+0.8 ml of the diluted VTP194310 Stock.
The 1 and 10 μg/kg PEG-G-CSF solutions were made by diluting 6 mg/ml stock with PBS.
Male BDF1 mice (C57Bl×DBA2), 7-8 weeks old, DOB: 1 Jun. 2006) were used in this experiment.
35 μl of blood (via the submandibular vein) were collected according to the scheduled time points or until the full recovery of blood cells and platelets. The blood samples were analyzed after 1:5 dilution with PBS saline containing 2% BSA (Fraction V) and 0.2 mM EDTA on the Hematology Analyzer Cell-DYN 3700 (Abbott Diagnostics).
Each group of mice were treated with vehicle, VTP 194310 at 3 mg/kg, PEG-G-CSF at 1 or 10 μg/kg, and CPM at 150 mg/kg. The mean numbers of total white blood cells (WBC), neutrophils, lymphocytes, red blood cells (RBC) and platelets and standard error (SE) for data obtained for each treated group are shown in FIG. 4. […] Combination treatment with VTP 194310 and PEG-G-CSF further increased recovery.

[2] = test system: 5-FU-induced neutropenic male BDF1 mice; assay: monotherapy and combination therapy on neutrophil recovery in 5-FU-induced neutropenic mice (Example 5); format: in vivo, mouse; conditions: monotherapy; 5-FU 150 mg/kg i.v. Day 0; VTP 194310 3 mg/kg/day oral Days 2 to 4; PEG-G-CSF 10 μg/kg s.c. Day 5, 6, or 7
Experimental: VTP194310 DMSO Stock solution was made by weighing out VTP194310 and dissolving it in DMSO (25 mg/1.33 ml DMSO).
The Vehicle solution was made by mixing 39.2 ml Corn Oil+0.8 ml DMSO.
The 3.0 mg/kg VTP194310 solution was made by mixing 39.2 ml Corn Oil+0.8 ml VTP 194310 DMSO Stock solution.
The 150 mg/kg 5-FU solution was made by weighing out 187.5 mg 5-FU and mixing it with 10 g saline.
The 10 μg/kg PEG-G-CSF solution was made by diluting 6 mg/ml stock with PBS.
Male BDF1 mice (C57Bl×DBA2), 9 weeks old, DOB: 26 Jun. 2006) were used in this experiment.
Each group of mice were treated with 150 mg/kg 5-FU intravenously on Day 0, vehicle or VTP194310 orally by gavage at 3 mg/kg/day on Days 2 to 4, and/or subcutaneously with PEG-G-CSF at 10 μg/kg on Days 5, 6, or 7 according to the regimens listed in the table. The mean numbers of total white blood cells (WBC), neutrophils, lymphocytes, red blood cells (RBC) and platelets and standard error (SE) of data obtained for each treated group are shown in FIG. 6.

[3] = test system: CPM-induced leukopenic male BDF1 mice; assay: cyclophosphamide-induced mouse model of leukopenia, blood cell recovery (Example 1); format: in vivo; conditions: 10 μg/kg s.c. at day 2
From the text: Mice purchased from Charles River Laboratories (Wilmington, Mass.) were housed individually in micro-isolater cages in a 12-hour light/dark cycle. They were housed under pathogen-free conditions, and received a normal standard diet and water ad libitum. They were acclimated for one week at the Association for Assessment and Accreditation of Laboratory Animal Care (AAALAC) accredited animal facility (Allergan Inc., Irvine, Calif.) prior to experiments. Study designs were approved by the Institutional Animal Care and Use Committee. Body weights were monitored throughout each study. Weight of the mice was in the range of 22-27 g at the day of treatment initiation. The mice were healthy, not previously used in other experimental procedures.
Leukopenia was induced in male BDF1 mice (C57Bl×DBA2, 7.5-12 weeks) by an intra-peritoneal (i.p.) injection of 200 mg/kg Cyclophosphamide (CPM, Sigma-Aldrich, Saint Louis, Mo.) in 0.2 ml saline. The effect of VTP 194310 on leukocyte recovery was evaluated by oral gavage of animals with 1 mg/kg of VTP 194310 as indicated in the results section. VTP 194310 (dissolved in DMSO) was diluted through peanut oil as the vehicle (dosed at 5 ml/kg). Control mice were given DMSO and vehicle alone. As a positive control, granulocytopoiesis was stimulated in CPM-treated mice by a single sub-cutaneous injection of 10 μg/kg pegylated recombinant methionyl human granulocyte colony-stimulating factor (PEG-r-metHuG-CSF) (Neulasta, Pegfilgrastim; Amgen, Thousand Oaks, Calif.) on day 2. Three separate experiments were performed.
Peripheral blood (60 μl) was collected under anaesthesia from the retroorbital sinus of the mice with heparinized capillary tubes and transferred to EDTA-coated microtainer tubes (Becton Dickinson, Franklin Lakes, N.J.). White cell, neutrophil, and lymphocyte counts were obtained for at least three mice per group by diluting the blood 1:4 with PBS containing 5% bovine serum albumin (Fraction V; Sigma, Saint Louis, Mo.), and by using an Advia 120 Hematology System (Bayer HealthCare Diagnostics Division, Tarrytown, N.Y.).

B1: PEG-G-CSF: pegylated recombinant methionyl human granulocyte colony-stimulating factor (Neulasta, Pegfilgrastim; Amgen) (protein, chains of the INN, looked up)
chain: TPLGPASSLPQSFLLKCLEQVRKIQGDGAALQEKLCATYKLCHPEELVLLGHSLGIPWAPLSSCPSQALQLAGCLSQLHSGLFLYQGLLQALEGISPELGPTLDTLQLDVADFATTIWQQMEELGMAPALQPTQGAMPAFASAFQRRAGGVLVASHLQSFLEVSYRVLRHLAQP
modifications: N-terminal Met; PEG
**Q.** B1 was tested. Which “neutrophil recovery relative to control” value [1] did it give?
**A.** The value was “enhanced neutrophil recovery”.

**Q.** What about the “recovery of neutrophils relative to control” value [2] of the same molecule?
**A.** Its value is “little effect”.

**Q.** And the “blood neutrophil level at day 8” value [3]?
**A.** The value was “declined by day 8 to numbers that were observed in the control group”.

**Q.** What about the “day of peak blood neutrophil level” value [3] of the same molecule?
**A.** The value was 7 days.

**Q.** What about the “number of blood neutrophils” value [3] of the same molecule?
**A.** Its value is “sharp rise”.
